# According to article PMC11610669, “A Spectroscopic Study on the Amyloid‐β Interaction with Clicked Peptide‐Porphyrin Conjugates: a Vision Toward the Detection of Aβ Peptides in Aqueous Solution” (Chembiochem, 2024):
# What was measured:
# Aβ42 [1] = molecular target: T1, Aβ42 (Homo sapiens, UniProt P05067); test: bis-Ans fluorescence anti-fibrillogenic assay; format: biochemical; conditions: Aβ42 20 μM, 1:1, 60 μM Bis-Ans solution, phosphate buffer pH 7.4, 37 °C, 65 h, ex/em 385/510 nm, triplicate
# Excerpt: We also carried out fluorescence assays to evaluate the anti‐fibrillogenic ability of the porphyrin‐peptide conjugates. We used the bis‐Ans (4,4’‐Dianilino‐1,1’‐binaphtyl‐5,5’disulphonic acid) as a chromophore instead of the typical Th−T (Thioflavin‐T), to avoid any potential interference that might occur between the porphyrin and Th−T, in both the excitation and emission wavelength regions. The bis‐Ans probe is sensitive to Aβ fibril formation, and it specifically binds to solvent‐exposed hydrophobic surfaces leading to an increase in its fluorescence emission maximum at 510 nm, in our case.[47] The bis‐Ans fluorescence kinetics were recorded with Aβ42 (20 μM) alone or in the presence of the porphyrin‐peptide conjugates at a 1 : 1 molar ratio. The kinetic profiles of the porphyrin‐peptide conjugates in the absence of Aβ42 were also acquired for comparison (Figure 4S). […] The obtained fluorescence intensities were compared with the values obtained for Aβ42 alone.
# Bis‐Ans fluorescence kinetics were measured on a Flash Thermo Varioskan spectrofluorometer with excitation and emission at 385 and 510 nm, respectively. Aβ42, alone or in the presence of the porphyrin‐peptide conjugates in a 1 : 1 molar ratio, was dissolved in 10 mM aq NaOH (30 μL). […] Readings were taken every 10 min, after weak shaking for 10 s. The fluorescence intensity was monitored for 65 h. […]
# Aβ42 [2] = molecular target: T1, Aβ42; test: Grating-Coupled Interferometry (GCI) binding to immobilized Aβ42; conditions: GCI fit quality parameter
# Experimental: The Grating‐Coupled Interferometry (GCI) is a widely used analytical technique for characterizing intermolecular interactions. It allows quantitative measurements of both the affinity and the kinetics of the binding events. This high sensitivity label‐free method was exploited to measure the interactions of Aβ42 with Cu‐Ph‐Pep , Ph‐Pep , and Zn‐Ph‐Pep (Figure 5S). Control experiments with pristine MCPTPyP and the peptide GPGKLVFF ( Pep ) were carried out for comparison. The calculated association and dissociation kinetic constants (kon and koff, respectively) and the thermodynamic binding constant (KD), are summarized in Table 1. The obtained values indicate that all the conjugates show good affinities with Aβ42. It is also clear from Table 1 that the peptide moiety is fundamental for the molecular recognition of the Aβ42 peptide.[48] […] Nevertheless, it is important to emphasize that the interaction with Aβ42 is primarily mediated by the peptide rather than by the porphyrin macrocycle. We next investigated whether these peptide derivatives could be employed as molecular probes for the detection of Aβ42 aggregated species. A new set of CD experiments was then carried out with Aβ42 at 20 μM both in the absence and in the presence of the porphyrin‐peptide conjugates at 1 : 1 molar ratio in the UV (195–350) and Visible (350–500) regions. […] The signal rapidly evolved toward the typical β‐sheet profile (already within 24 h) with a single minimum at 216 nm, an x‐axis intercept at 202 nm and a maximum shift at a wavelength 195 nm.[49] […] For the sake of comparison, the CD spectra of the porphyrin‐peptide conjugates at 20 μM were also recorded in the same experimental conditions, both in the far‐UV and Visible regions (Figure 6S).
# The experiments were performed on a Creoptix WAVE system (Creoptix). Borate buffer (100 mM sodium borate pH 9.0, 1 M NaCl) was used for chip conditioning. Aβ42 peptide (20 μg/ml in Na Acetate pH 4.5) was immobilized on 4PCH WAVE chips (quasiplanar polycarboxylate surface; Creoptix) according to the manufacturer instructions at a final density of 1910±40 pg/mm^2. Single‐cycle sequential injections of dilution series for each Porphyrin‐Peptide conjugates in running buffer (PBS, 0.005 % Tween 20, 1 % DMSO, 0.2 mg/ml BSA) were performed at 25 °C, using a flow rate of 100 μl/min. In details, for the conjugate Cu‐Ph‐Pep , 1 : 2 dilution series starting from 200 μM were injected for 10 s association time, 45 s dissociation time, followed by a dissociation time of 600 s for the last higher concentration injection. Finally, for the conjugates Ph‐Pep and Zn‐Ph‐Pep , 1 : 2 dilution series starting from 50 μM and 100 uM, respectively, were injected for 30 s association time, 45 s dissociation time, followed by a dissociation time of 600 s for the last higher concentration injection. Blank injections were used for double referencing and a DMSO calibration curve for bulk correction. Analysis and correction of the obtained data were performed using the Creoptix WAVE control software (correction applied: X and Y offset; DMSO calibration; double referencing). Mass transport binding models with bulk correction were used to fit all experiments. All the experiments have been performed at least in triplicate.
# Figure 5S. Quantitative binding kinetics of Aβ42 vs a) MCPTPyP; b) Cu-Ph-Pep; c) Ph-Pep; d) Zn-Ph-Pep; and e) Pep measured by GCI. All curves were blank subtracted. Experiments were performed in triplicate. All the quality assessments (i.e., χ2 shown in Table 1 of the main text , parameter errors, and residual plots were acceptable; the sensorgrams had sufficient curvatures an d the kinetic constant k off were within the measurable range) were fulfilled. Descriptive Statistical Analysis was employed to calculate the mean of the obtained values of k on, koff and KD as a measure of central tendency and standard deviations of the former values were computed as a measure of dispersion.
# Figure 6S. […]
# T1 sequence (P05067 672-713 limits assumed): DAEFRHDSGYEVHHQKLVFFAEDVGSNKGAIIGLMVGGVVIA
smiles,measurement,setting,value
COC(=O)[C@H](Cc1cn(CCCC[C@H](NC(=O)CNC(C)=O)C(=O)N2CCC[C@H]2C(=O)NCC(=O)N[C@@H](CCCCN)C(=O)N[C@@H](CC(C)C)C(=O)N[C@H](C(=O)N[C@@H](Cc2ccccc2)C(=O)N[C@@H](Cc2ccccc2)C(N)=O)C(C)C)nn1)NC(=O)c1ccc(-c2c3nc(c(-c4cc[n+](C)cc4)c4ccc([nH]4)c(-c4cc[n+](C)cc4)c4nc(c(-c5cc[n+](C)cc5)c5ccc2[nH]5)C=C4)C=C3)cc1 [Zn‐Ph‐Pep],effect on Aβ42 fibril formation (bis-Ans fluorescence),Aβ42 [1],might support or even accelerate Aβ42’s fibril formation
same,"χ^2 (average of the squared residuals, fitting confidence)",Aβ42 [2],0.49±0.09
